Measured values as given in US20230374148A1, “BINDING MOLECULES THAT MULTIMERISE CD45” (UCB BIOPHARMA SRL, priority 2020, published 2023).

What was measured:
[1] = system: Human whole blood; assay: Apoptosis of lymphocytes in whole blood; type: cell-based; conditions: 5 hrs
Procedure: Human whole blood (Lithium heparin tubes) was taken from two donors (HTA #051119-01 & #051119-02) at UCB Pharma Slough, UK according to approved ethical sample collection protocol.
In a Greiner 96-well non-binding microplate, Fab-X and Fab-Y combinations 6294-X/4133-Y and NegCtrl-X/4133-Y, were added to PBS to give a Fab-KD-Fab concentration of 2750 nM. Similarly, a 2750 nM stock of 4133-6294 BYbe in PBS was prepared. The microplate was incubated for 1 hr at 37° C., 5% CO2. Following the incubation, Fab-KD-Fab and BYbe reagents were then serially diluted in PBS 1 in 5, nine times to produce to form a 10-point dose curve.
5 μl of each Fab-KD-Fab or BYbe dilution was added to Nunc™ 96-Well Polypropylene DeepWell™ plates (ThermoFisher). Then 50 μl of blood was added to each well, the plate gently mixed and sealed with a plate seal that allows gas exchange. These cells were then incubated for 5 hrs at 37° C., 5% CO2. Running the assay for a short time period avoids the need to add an anti-coagulant.
Following the incubation, 950 μl of BD Phosflow BD Lyse/Fix (cat no. BD558049, FisherScientific) was added to each well and the plate incubated at 37° C., 5% CO2 for 10 minutes. The plate was then spun at 500 g for 8 min, at 4° C. The buffer was aspirated and 1 ml of FACS buffer (PBS+1% bovine serum albumin (BSA)+0.1% NaN3+2 mM EDTA, Sigma Aldrich) added to wash cells using an Integra Viaflo 96 channel pipette. The plate was spun at 500 g for 8 min, at 4° C. As before, the buffer was aspirated and 1 ml of FACS buffer added to wash cells. This was followed by a slower spin at 250 g for 10 min, at 4° C. Again, buffer was aspirated and 1 ml of FACS buffer added to wash cells.
The plate was re-spun at 500 g for 8 min, at 4° C. Buffer was aspirated leaving the cells in a minimal residual volume for cell-specific antibody staining. 20 μl of cell-specific antibody cocktail (shown in Table 7 below) was added to the wells and the plate incubated for 1 hr at 4° C.
Following the incubation with the antibody cocktail, cells were washed twice as outlined above and buffer aspirated to leave the cells in 20 μl residual buffer. 20 μl of FACS buffer was then added to samples to dilute the cells. Cells were analysed live using the Intellicyt iQue Screener PLUS. Live cell counts were extracted as metrics and graphical representations generated using Graphpad Prism version 8.1 (Graphpad). Asymmetric (five parameter) curve fitting was applied to derive maximal % cell reduction and EC50 values.

[2] = system: M1 macrophages; assay: Caspase-3/7 induction, IncuCyte, M1; type: cell-based, human; conditions: over 6 days, BYbe 250-2 nM, Camptothecin, Staurosporine 5 μM
Procedure: Human PBMC derived from blood leukocyte platelet-apheresis cones (NHSBT Oxford) were banked as frozen aliquots. Prior to an assay being performed, 2 vials of frozen cells, each containing 5×10^7 cells in 1 ml, were thawed in a 37° C. water bath and then added to 50 ml complete media (RPMI 1640+2 mM GlutaMAX+1% Pen/Strep, all previous supplied by Invitrogen, +10% Fetal Bovine Serum (FBS), Sigma Aldrich). Cells were spun (500 g, 5 min, at RT) and re-suspended in 30 ml complete media to wash and spun again. Cells were resuspended in 20 ml MACS buffer (PBS, pH 7.2, 0.5% bovine serum albumin (BSA), and 2 mM EDTA, Sigma Aldrich) and counted on a ChemoMetec NucleoCounter NC-3000 to determine concentration and viability. PBMCs from one donor (UCB-Cones 802) was used in this assay. Monocyte isolation was performed using the Pan Monocyte Isolation Kit (Miltenyi Biotec, cat no. 130-096-537) and LS columns (Miltenyi Biotec, cat no 130-042-401) according to manufacturer's instructions. 100 μl of cells were removed and stored on ice to check monocyte purity post isolation. Isolated cells were stained with BV421 mouse anti-human CD14 (BD Biosciences, cat no. 563743) to check for purity of monocytes using FACS. M-CSF (Sigma Aldrich, cat no. SRP3110) and GM-CSF (R&D Systems, cat no. 215-GM/CF) were prepared at 100 μg/ml. Cells were prepared in M1 media (complete media+50 ng/ml GM-CSF) or M2 media (complete media+50 ng/ml M-CSF) at a concentration of 2.5×10^5 cells/ml. 200 μl cells were plated into two Corning 96 well Black polystyrene microplates (Sigma Aldrich) and incubated at 37° C., 5% CO2. Following a 3-day incubation at 37° C., 5% CO2, the plate was spun (500 g, 5 min, RT), buffer was aspirated, the cells were washed once with PBS and then resuspended in 200 μL of M1 media or M2 media. […] The caspase dye was measured with the green laser (350 ms) and the cytotox dye was measured with a red laser (650 ms). The green dye signal was analysed using Incucyte® Zoom2016B. […]

B1: 4133-6294 BYbe: anti-CD45 BYbe (Fab-scFv): 4133 Fab HC-G4S linker-6294 scFv heavy chain paired with 4133 light chain (antibody)
heavy: QEQLVESGGGLVQPEGSLTLTCTASGFSFSGNYYMCWVRQAPGKGLEWIGCLYTGSSGSTYYASWAKGRFTISKTSSTTVTLQMTSLTAADTATYFCARDLGYEIDGYGGLWGQGTLVTVSSGQPKAPSVFPLAPCCGDTPSSTVTLGCLVKGYLPEPVTVTWNSGTLTNGVRTFPSVRQSSGLYSLSSVVSVTSSSQPVTCNVAHPATNTKVDKTVAPSTCSKPGGGGSGGGGSEVQLVESGAELARPGASVKMSCKASGYTFTSYTMHWVKQRPGQCLEWIGYINPSSGYTEYNQKFKDKTTLTADKSSSTAYLQLSSLTSEDSAVYYCARVGDGFYPSWLAYWGQGTLVTVSSGGGGSGGGGSGGGGSGGGGSDIQMTQSPKFLLVSAGDRVTITCKASQSVRNDVAWYQQKPGQSPKLLIFYASKRYTGVPDRFTGSGYGTDFTFTISTVQAEDLAVYFCQQDYSSPTTFGCGTKLEIK
light: AQVLTQTPSPVSAVVGGTVSISCQASQSVYNNNNLSWYQQKPGQPPKLLIYDASKLASGVPSRFKGSGSGTQFTLTISGVQCDDAATYYCLGGYYSSGWYFAFGGGTKVVVKRTPVAPTVLIFPPAADQVATGTVTIVCVANKYFPDVTVTWEVDGTTQTTGIENSKTPQNSADCTYNLSSTLTLTSTQYNSHKEYTCKVTQGTTSVVQSFNRGDC
[1]; CD4+, Donor 1, whole blood
  Max % reduction: 50%
[1]; CD4+, Donor 2, whole blood
  Max % reduction: 54%
[1]; Total lymphocytes, Donor 1, whole blood
  Max % reduction: 34%
[1]; Total lymphocytes, Donor 2, whole blood
  Max % reduction: 44%
[2]
  levels of Caspase-3/7: in-line with NegCtrl BYbe-treated and untreated macrophages
